T1: La/SSB N-terminal domain (La-NTD) (human, UniProt P05455)
T1 chain: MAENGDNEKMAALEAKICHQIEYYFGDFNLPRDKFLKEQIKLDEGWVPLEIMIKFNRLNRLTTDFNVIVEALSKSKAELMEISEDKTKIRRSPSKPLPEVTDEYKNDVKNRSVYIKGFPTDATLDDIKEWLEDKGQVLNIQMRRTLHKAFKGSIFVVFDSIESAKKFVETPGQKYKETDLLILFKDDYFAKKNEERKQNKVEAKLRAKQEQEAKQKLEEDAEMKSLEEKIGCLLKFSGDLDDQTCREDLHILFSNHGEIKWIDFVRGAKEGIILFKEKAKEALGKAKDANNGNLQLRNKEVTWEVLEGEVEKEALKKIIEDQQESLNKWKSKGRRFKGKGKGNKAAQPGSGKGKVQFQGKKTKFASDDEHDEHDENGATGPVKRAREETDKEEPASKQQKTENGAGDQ

B1: chAPOMAB_VH0/VK0_K322A (antibody, V domains shown)
VH: EVQLQQPGAELVKPGASVKLSCKASGYAFTHYYIYWIKQRPGQGLEWIGGVNPSNGGTHFNEKFKSKATLTVDKSSSTAYMQLSSLTSEDSAVYYCTRSEYDYGLGFAYWGQGTLLTVSS
VL: EIVMSQSPSSLAVSAGEKVTMSCKSSQSLLNSRTPKNYLAWYQQKPGQSPKLLIYWASTRKSGVPDRFTGSGSGTDFTLTISSVQAEDLAVYYCKQSYNLLTFGAGTKLEL
B2: VH3/VK6_K322A (antibody, V domains shown)
VH: EVQLVQSGAEVKKPGASVKVSCKASGYAFTHYYIYWIRQAPGQGLEWMGGVNPSSGGTHYAEKFQGRVTLTVDTSSSTAYMELSSLRSEDTAVYYCTRSEYDYGLGFAYWGQGTLVTVSS
VL: DIVMTQSPLSLPVTPGEPASISCRSSQSLLSSRTPKNYLAWYQQKPGQSPQLLIYWASTRKSGVPDRFSGSGSGTDFTLKISRVEAEDVGVYYCKQSYNLLTFGQGTKLEIK
B3: VH6/VK8_K322A_RadMab (antibody, V domains shown)
VH: EVQLVQSGAEVKKPGASVKVSCKASGYAFTHYYIYWIKQAPGQGLEWIGGVNPSNGGTHFNEKFKSRVTITVDKSASTAYMELSSLRSEDTAVYYCTRSEYDYGLGFAYWGQGTLVTVSS
VL: EIVMTQSPDSLAVSLGERATINCKSSQSLLNSRTPKNYLAWYQQKPGQPPKLLIYWASTRESGVPDRFTGSGSGTDFTLTISSLQAEDVAVYYCKQSYNLLTFGQGTKLEIKR
B4: VH3/VK6_K322A_RadMab (antibody, V domains shown)
VH: EVQLVQSGAEVKKPGASVKVSCKASGYAFTHYYIYWIRQAPGQGLEWMGGVNPSSGGTHYAEKFQGRVTLTVDTSSSTAYMELSSLRSEDTAVYYCTRSEYDYGLGFAYWGQGTLVTVSS
VL: DIVMTQSPLSLPVTPGEPASISCRSSQSLLSSRTPKNYLAWYQQKPGQSPQLLIYWASTRKSGVPDRFSGSGSGTDFTLKISRVEAEDVGVYYCKQSYNLLTFGQGTKLEIKR
B5: VH6/VK8_K322A (antibody, V domains shown)
VH: EVQLVQSGAEVKKPGASVKVSCKASGYAFTHYYIYWIKQAPGQGLEWIGGVNPSNGGTHFNEKFKSRVTITVDKSASTAYMELSSLRSEDTAVYYCTRSEYDYGLGFAYWGQGTLVTVSS
VL: EIVMTQSPDSLAVSLGERATINCKSSQSLLNSRTPKNYLAWYQQKPGQPPKLLIYWASTRESGVPDRFTGSGSGTDFTLTISSLQAEDVAVYYCKQSYNLLTFGQGTKLEIK

The test has as its target T1, La/SSB N-terminal domain (La-NTD). The test is described as follows: SPR. In general terms: Surface plasmon resonance follows binding to a sensor surface in real time, without labels.
Turning to B1, the affinity, expressed as Kd, was 18.2 nM.
Next, B2: 13.6 nM; B3: 8.72 nM; B4: 8.27 nM.
Consider B5, for which the Kd – broadly, the equilibrium constant for the complex coming apart – came out at 14.5 nM.

The values are drawn from patent US20260284244 (published 2026).
